# B1: scFv(FRP5):hinge:ζ protein (receptor)
# chain: QIQLVQSGPELKKPGETVKISCKASGYPFTNYGMNWVKQAPGQGLKWMGWINTSTGESTFADDFKGRFDFSLETSANTAYLQINNLKSEDMATYFCARWEVYHGYVPYWGQGTTVTVSSGGGGSGGGGSGGGGSDIQLTQSHKFLSTSVGDRVSITCKASQDVYNAVAWYQQKPGQSPKLLIYSASSRYTGVPSRFTGSGSGPDFTFTISSVQAEDLAVYFCQQHFRTPFTFGSGTKLEIKALEISNSVMYFSSVVPVLQKVNSTTTKPVLRTPSPVHPTGTSQPQRPEDCRPRGSVKGTGLDFLEDPKLCYLLDGILFIYGVIITALYLRAKFSRSAETAANLQDPNQLYNELNLGRREEYDVLEKKRARDPEMGGKQQRRRNPQEGVYNALQKDKMAEAYSEIGTKGERRRGKGHDGLYQGLSTATKDTYDALHMQTLAPR
# notes: Stood on the surface of transduced murine CTL C196 (clone CFYZ.1) and human Jurkat cells (clone JFYZ.4); On cells it is found as disulfide-linked homodimers and as heterodimers with endogenous ζ; also called scFv(FRP5):hinge:zeta; scFv:hinge:ζ
# Biological target: T1, purified extracellular domain of the erbB-2 protein (human, UniProt P04626 23-652)
# T1 construct: extracellular domain; also called erbB-2^ecd; soluble erbB-2 receptor
# Test: flow cytometry
# Description: Cell surface expression and erbB-2 receptor binding ability of the scFv(FRP5):hinge:ζ protein in transduced C196 CTL and in transduced Jurkat cells are confirmed by flow cytometry.
# Single-cell suspensions of 5 ×10^5 viable cells (Jurkat cells, JFYZ.4 cells, C196 cells, CFYZ.1 cells) are stained with the purified extracellular domain of the erbB-2 protein (erbB-2^ecd, expressed in Sf9 insect cells using a baculovirus expression vector; Disis et al., Cancer Res. 54, 16–20 (1994)) for 1 hour followed by the FITC-conjugated anti-erbB-2 monoclonal antibody FSP77 (European patent application EP-A-502 812) for 45 min at 4° C. in 100 µl PBS containing 1% BSA and 0.1% sodium azide. FSP77 also is specific for the extracellular domain of the erbB-2 receptor, but recognizes a different epitope from mAb FRP5 (I. M. Harwerth et al., J. Biol. Chem. 21, 15160–15167 (1992)).
binder,measurement,value
B1,binding result,binds
